The subject of this data set is SnaBI restriction endonuclease (R.SnaBI) (Sphaerotilus natans). The data set can be described thus: cleavage_in_vitro. The note with it: crude extract, 37 C, 15 min and 1 h; about 8x10^6.

The substance T7 phage DNA (SnaBI substrate) registered an activity (units/g wet cells) of 8e+06.

For the origin of these results see patent US6025179.
